The subject of assay [1] is rat model of myocardial ischemia-reperfusion-induced injury. To be noted: La et al., FASEB J. 2001; cited from earlier work.
The test system of assay [2] is Duchenne muscular dystrophy boys. To be noted: orally, 100 mg/kg; cited from earlier work.
The subject of assay [3] is wildtype myofibers. As to the kind of experiment: Laser injury FM 4-64 uptake, E coli versus HEK cell produced rANXA6. It is filed as cell-based, mouse. Conditions: 13 μg/ml and 130 μg/ml; for FM 4-64 dye uptake after laser injury: vs BSA control. As to the method: Myofiber isolation, laser injury, and dye measurement. For recombinant myofibers studies, myofibers were isolated from wildtype mice. Myofibers were incubated in Ringer's media with 13 μg/ml or 130 μg/ml human recombinant annexin, E coli or HEK cell produced. Bovine serum albumin (BSA) was used as a negative control. FM 4-64 ([…]) was added to the myofibers just prior to imaging. Fibers were subjected to laser-induced damage at room temperature using the Nikon A1R-MP multiphoton microscope. Imaging was performed using a 25×1.1 NA objective directed by the NIS-Elements AR imaging software. FM 4-64 was excited using a 920 nm wavelength laser and emission wavelengths of 575 nm and 629 nm were collected, respectively. To induce laser damage on isolated myofibers, a diffraction limited spot (diameter approximately 410 nm) was created on the lateral membrane of the myofiber using a 920 nm wavelength laser at 10-15% laser power for 1 second. FM 4-64 area was measured using FIJI from a single slice near the middle of the z-stack. Myofiber quality control was based on a number of characteristics including using adherent myofibers with intact sarcomere structure. Myofibers appeared devoid of tears or ruptures induced during the isolation protocol. The region of the myofiber selected for damage was linear and not located on a nucleus or neuromuscular junction.
Statistical analyses were performed with Prism (Graphpad, La Jolla, Calif.). Comparisons relied on ANOVA (1way ANOVA for 1 variable). P-values of less than or equal to 0.05 were considered significant. Error bars represent +/−standard error of the mean (SEM).

Assay [4] relates to wildtype myofibers. As to the kind of experiment: Laser-induced membrane injury, FM 4-64 dye uptake. It is filed as cell-based, mouse. To be noted: mutant A6E233A-GFP vs wildtype annexin A6-GFP expressing myofibers.
Assay [5] deals with myofibers. Description: Annexin repair cap formation after laser injury at multiple Ca2+ concentrations. Format: cell-based, mouse. Here is the method:
(§1) Electroporation, myofiber isolation, laser injury, cap and vesicle measurement. Flexor digitorum brevis (FDB) fibers were transfected with endo-free plasmid DNA by in vivo electroporation. Methods were described previously in (Demonbreun and McNally, 2015; Demonbreun et al., 2016b; DiFranco et al., 2009). Z-stack projections were acquired from consecutive acquisitions after the final time-lapse frame, approximately 4 minutes post damage, with a […] step size between slices. Z-stack renderings were constructed in FIJI. Measurement of the cap area and feret diameter were conducted from a single slice near the middle of the z-stack using FIJI imaging tools. Fibers expressing similar levels of tagged or GCaMP5G protein were compared. GCaMP5G Ca^2+ fluorescence was measured from the acquired timelapse images, using a standard rectangular ROI, placed inside the myofiber below the site of damage using FIJI. Fluorescence was expressed as F/F0. External vesicle number and GCaMP5G area were measured from endpoint z-stacks and max projection images using FIJI. Vesicles were considered external if they were found outside the sarcolemma assessed in brightfield and fluorescent channels. All measurements were acquired from myofibers isolated from at least n≥3 mice, n≥3 myofibers per mouse.
Calcium kinetics. FDB muscle was electroporated and isolated as described above. Myofibers were damaged in Ringers solution with Ca^2+ concentrations of 2 mM, 1 mM, 0.5 mM, 0.25 mM, 0.175 mM, 0.1 mM, 0.050 mM, and 0 mM. EDTA was added as a Ca^2+ chelating agent in only in the 0 mM Ca^2+ Ringers. Myofibers were isolated directly into 2 mM, 1 mM and 0.5 mM Ringers for those experiments respectively. For experiments using less than 0.5 mM Ca^2+ myofibers were isolated in 0.5 mM Ca^2+ Ringers and then diluted with 0 mM EDTA-free Ca^2+ Ringers. For 0 mM experiments, myofibers were isolated in 0.5 mM Ca^2+ Ringers and then replaced with 0 mM Ca^2++EDTA Ringers just prior to imaging. Co-electroporation of wildtype annexin+wildtype annexin constructs was performed in one mouse foot, while the contralateral foot was co-electroporated with wildtype annexin+mutant annexin. All measurements were acquired from myofibers isolated from at least n≥2 mice, n≥3 myofibers per mouse at each Ca^2+ concentration. Area-Ca^2+ curves were fitted with a Hill Curve at Ca^2+ concentrations ranging from 0-2 mM. Kinetic parameters were calculated using Prism Graphpad.
as §1, with “(Demonbreun A R, Quattrocelli M, Barefield D Y, Allen M V, Swanson K E,” for “(Demonbreun”, “McNally E M. An actin-dependent annexin complex mediates plasma membrane repair in muscle. The Journal of cell biology. 2016; 213(6):705-18; Demonbreun A R, and McNally E M. DNA Electroporation, Isolation and Imaging of Myofibers. Journal of visualized experiments: JoVE.” for “McNally,”, “106(106):e53551;” for “Demonbreun et al., 2016b;”, “M, Quinonez M, Capote J, and Vergara J. DNA transfection of mammalian skeletal muscles using in vivo electroporation. Journal of visualized experiments: JoVE. 2009; 32(32)).” for “et al., 2009).”, “Vesicles were considered external if they were found outside the sarcolemma assessed in brightfield and fluorescent channels. All measurements were acquired from myofibers isolated from at least n≥3 mice, n≥3 myofibers per mouse.” left out

For “AC2-26: N-terminal annexin A1 peptide (AMVSEFLKQAWFIENEEQEYVQTVK; UniProt P04083 2-26, looked up, fragment) [reference compound]”, the cardioprotection entry in assay [1] is “cardioprotective response”.

Turning to `CC/C=C\C/C=C\C/C=C\C/C=C\C/C=C\C/C=C\CCC(=O)NCCNC(=O)c1ccccc1O` [Edasalonexent], the muscle disease progression entry in assay [2] is “delayed muscle disease progression”.

B1: E coli produced rANXA6: human recombinant annexin A6 produced in E coli, from R&D Systems or CRO Evotec SE (protein, UniProt P08133 2-673, looked up)
Annexin A6: AKPAQGAKYRGSIHDFPGFDPNQDAEALYTAMKGFGSDKEAILDIITSRSNRQRQEVCQSYKSLYGKDLIADLKYELTGKFERLIVGLMRPPAYCDAKEIKDAISGIGTDEKCLIEILASRTNEQMHQLVAAYKDAYERDLEADIIGDTSGHFQKMLVVLLQGTREEDDVVSEDLVQQDVQDLYEAGELKWGTDEAQFIYILGNRSKQHLRLVFDEYLKTTGKPIEASIRGELSGDFEKLMLAVVKCIRSTPEYFAERLFKAMKGLGTRDNTLIRIMVSRSELDMLDIREIFRTKYEKSLYSMIKNDTSGEYKKTLLKLSGGDDDAAGQFFPEAAQVAYQMWELSAVARVELKGTVRPANDFNPDADAKALRKAMKGLGTDEDTIIDIITHRSNVQRQQIRQTFKSHFGRDLMTDLKSEISGDLARLILGLMMPPAHYDAKQLKKAMEGAGTDEKALIEILATRTNAEIRAINEAYKEDYHKSLEDALSSDTSGHFRRILISLATGHREEGGENLDQAREDAQVAAEILEIADTPSGDKTSLETRFMTILCTRSYPHLRRVFQEFIKMTNYDVEHTIKKEMSGDVRDAFVAIVQSVKNKPLFFADKLYKSMKGAGTDEKTLTRIMVSRSEIDLLNIRREFIEKYDKSLHQAIEGDTSGDFLKALLALCGGED
modifications: E. coli produced
notes: human recombinant annexin A6 produced in E coli, from R&D Systems or CRO Evotec SE
As for B1, in assay [3], the “effect on membrane repair, E coli produced compared to mammalian cell produced protein” value is recorded as “not significantly different” and the “FM 4-64 dye uptake after laser injury” value is on record as “significantly less”. Besides, the “effect on membrane repair, E coli produced compared to mammalian cell produced protein” value in assay [3] (listed as annexin A6 protein produced in prokaryotic cells) was “performed as well as”.

B2: mammalian HEK cell produced rANXA6: human recombinant annexin A6 produced in mammalian HEK cells (protein, UniProt P08133 2-673, looked up)
Annexin A6: AKPAQGAKYRGSIHDFPGFDPNQDAEALYTAMKGFGSDKEAILDIITSRSNRQRQEVCQSYKSLYGKDLIADLKYELTGKFERLIVGLMRPPAYCDAKEIKDAISGIGTDEKCLIEILASRTNEQMHQLVAAYKDAYERDLEADIIGDTSGHFQKMLVVLLQGTREEDDVVSEDLVQQDVQDLYEAGELKWGTDEAQFIYILGNRSKQHLRLVFDEYLKTTGKPIEASIRGELSGDFEKLMLAVVKCIRSTPEYFAERLFKAMKGLGTRDNTLIRIMVSRSELDMLDIREIFRTKYEKSLYSMIKNDTSGEYKKTLLKLSGGDDDAAGQFFPEAAQVAYQMWELSAVARVELKGTVRPANDFNPDADAKALRKAMKGLGTDEDTIIDIITHRSNVQRQQIRQTFKSHFGRDLMTDLKSEISGDLARLILGLMMPPAHYDAKQLKKAMEGAGTDEKALIEILATRTNAEIRAINEAYKEDYHKSLEDALSSDTSGHFRRILISLATGHREEGGENLDQAREDAQVAAEILEIADTPSGDKTSLETRFMTILCTRSYPHLRRVFQEFIKMTNYDVEHTIKKEMSGDVRDAFVAIVQSVKNKPLFFADKLYKSMKGAGTDEKTLTRIMVSRSEIDLLNIRREFIEKYDKSLHQAIEGDTSGDFLKALLALCGGED
With B2, the “FM 4-64 dye uptake after laser injury” value in assay [3] is listed as “significantly less”.

B3: annexin A6E233A: Ca2+-binding mutant of annexin A6 (E233A), plasmid expressed, dominant negative (protein, UniProt P14824 2-673, looked up, variant E233A)
Annexin A6: AKIAQGAMYRGSVHDFPEFDANQDAEALYTAMKGFGSDKESILELITSRSNKQRQEICQNYKSLYGKDLIEDLKYELTGKFERLIVNLMRPLAYCDAKEIKDAISGVGTDEKCLIEILASRTNEQMHQLVAAYKDAYERDLESDIIGDTSGHFQKMLVVLLQGTRENDDVVSEDLVQQDVQDLYEAGELKWGTDEAQFIYILGNRSKQHLRLVFDEYLKTTGKPIEASIRGALSGDFEKLMLAVVKCIRSTPEYFAERLFKAMKGLGTRDNTLIRIMVSRSELDMLDIREIFRTKYEKSLYSMIKNDTSGEYKKALLKLCGGDDDAAGQFFPEAAQVAYQMWELSAVSRVELKGTVCAANDFNPDADAKALRKAMKGIGTDEATIIDIVTHRSNAQRQQIRQTFKSHFGRDLMADLKSEISGDLARLILGLMMPPAHYDAKQLKKAMEGAGTDEKTLIEILATRTNAEIRAINEAYKEDYHKSLEDALSSDTSGHFRRILISLATGNREEGGENRDQAQEDAQVAAEILEIADTPSGDKTSLETRFMTVLCTRSYPHLRRVFQEFIKKTNYDIEHVIKKEMSGDVKDAFVAIVQSVKNKPLFFADKLYKSMKGAGTDEKTLTRVMVSRSEIDLLNIRREFIEKYDKSLHQAIEGDTSGDFMKALLALCGGED
modifications: GFP tag
For B3, the “FM 4-64 fluorescence area after laser injury” value in assay [4] is on record as “increased”. Also, the “annexin A1, A2 and A6 cap size with co-expressed mutant annexin A6” value in assay [5] (compared to A1+A6, A2+A6, A6+A6 controls (heterotypic)) is “significant reduction”. Further, the “repair cap diameter (DMAX) / cap size of the co-expressed wildtype annexin of the same type” value in assay [5] (wildtype+mutant vs wildtype+wildtype co-electroporation (homotypic)) is “significantly reduced”.

B4: recombinant annexin A1: recombinant annexin A1 protein (literature) (protein, UniProt P04083 2-346, looked up)
Annexin A1: AMVSEFLKQAWFIENEEQEYVQTVKSSKGGPGSAVSPYPTFNPSSDVAALHKAIMVKGVDEATIIDILTKRNNAQRQQIKAAYLQETGKPLDETLKKALTGHLEEVVLALLKTPAQFDADELRAAMKGLGTDEDTLIEILASRTNKEIRDINRVYREELKRDLAKDITSDTSGDFRNALLSLAKGDRSEDFGVNEDLADSDARALYEAGERRKGTDVNVFNTILTTRSYPQLRRVFQKYTKYSKHDMNKVLDLELKGDIEKCLTAIVKCATSKPAFFAEKLHQAMKGVGTRHKALIRIMVSRSEIDMNDIKAFYQKMYGISLCQAILDETKGDYEKILVALCGGN
On to B4, for which, in assay [1], the cardioprotection entry is recorded as “cardioprotective response”.
